Test [1] concerns the target T1, FcγRIIIa extracellular domain with C-terminal His tag (human, UniProt P08637 17-208).
T1 construct: extracellular domain; also called FcgRIIIa; CD16A
Put plainly: SPR (Biacore), antibody captured, FcγRIIIa as analyte, 1:1 Langmuir kinetic fit. An outline of the steps:
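Biacore T100 at 25° C in HBS-EP+; antibodies captured on antigen-peptide chips (amine-coupled CM5 or biotinylated peptide on SA), with FcγR in running buffer flowed over.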
(In general: Surface plasmon resonance follows binding to a sensor surface in real time, without labels.)

The target of test [2] is T1, FcγRIIIa extracellular domain with …. The description is as above. How it is done: (§1) To assess this hypothesis, GpH7-A53 (SEQ ID NO: 42) resulting from the introduction of S239D into GpH7-A5 was constructed, and, this is combined with GpH7-B78 introduced with S239D, A330L, and I332E, and the expression and preparation were performed according to the method described in Reference Example 1. The effect of the combination of S239D and S239D, A330L, and I332E was assessed by comparing the FcγRIIIa binding between the heterodimerized and homodimerized antibodies with S239D, A330L, and I332E according to the method described in Reference Example 2 (Table 14).
(§2) Analysis of interaction between objective antibody and the FcγR was carried out using Biacore T100 (GE Healthcare). HBS-EP+ (GE Healthcare) was used as the running buffer, and the measurement temperature was set to 25° C. Chips produced by immobilizing the antigen peptide by the amine coupling method to a Series S Sencor Chip CM5 (GE Healthcare), or alternatively, chips produced by allowing preliminarily biotinylated antigen peptides to interact with and immobilize onto a Series S Sensor Chip SA (certified) (GE Healthcare) were used. Antibodies of interest were captured onto an antigen peptide-immobilized chip, and allowed to interact to each FcγR diluted with running buffer. To regenerate and repeatedly use the chip, the antibodies captured on the chip were washed off by reacting 10 mM glycine-HCl, pH 1.5.
(§3) The FcγR-binding activity of each antibody was assessed primarily using as an indicator the FcγR-binding activity and dissociation constant for FcγR.
This is another data set of the same source.

Test [3] has the same target. Put plainly: SPR (Biacore), ratio of KD values for FcγRIIIa.
For test [4] the target is unchanged. Put plainly: SPR (Biacore), ratio of KD values for FcγRIIIa. As for the experimental part:
as §1, §2
The source holds these as a separate data set.

Test [5] has the same target. Nature of the test: SPR (Biacore), antibody captured, FcγRIIIa as analyte, 1:1 Langmuir kinetic fit.
Source text: (§4) First, it was considered which H chain should be introduced with Y296W. GpH7-TA52 (SEQ ID NO: 44) resulting from the introduction of the mutation Y296W into GpH7-TA7 was constructed, and expressed and prepared in combination with GpH7-B78 according to the method described in Reference Example 1. Furthermore, GpH7-TA58 (SEQ ID NO: 45) resulting from the introduction of Y296W into GpH7-B78 was constructed, and expressed and prepared in combination with GpH7-TA22 according to the method described in Reference Example 1. To assess the effects of combinations with Y296W, the prepared antibodies were compared for the FcγRIIIa-binding activity according to the method described in Reference Example 2 (Table 16).
as §2, §3
This is another data set of the same source.

The target is the same in test [6]. Nature of the test: SPR (Biacore), ratio of KD values for FcγRIIIa.
Source text: as §4, §2
This is another data set of the same source.

The term Kd denotes a measure of binding affinity in units of concentration.

Read-outs that look alike come from different tables or passages of the source.

T1 sequence (P08637 17-208): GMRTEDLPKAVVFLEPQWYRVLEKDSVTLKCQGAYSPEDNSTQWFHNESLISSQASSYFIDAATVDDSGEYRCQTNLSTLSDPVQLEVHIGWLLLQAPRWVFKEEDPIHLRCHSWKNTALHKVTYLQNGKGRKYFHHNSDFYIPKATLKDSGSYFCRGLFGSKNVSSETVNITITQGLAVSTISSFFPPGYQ

B1: GpH7-A5/GpH7-B78/GpL16-k0 (antibody, human IgG1, kappa)
heavy 1: not shown
heavy 2: QVQLVQSGAEVKKPGASVTVSCKASGYTFTDYEMHWIRQPPGEGLEWIGAIDPKTGDTAYSESFQDRVTLTADKSTSTAYMELSSLTSEDTAVYYCTRFYSYTYWGQGTLVTVSSASTKGPSVFPLAPSSKSTSGGTAALGCLVKDYFPEPVTVSWNSGALTSGVHTFPAVLQSSGLYSLSSVVTVPSSSLGTQTYICNVNHKPSNTKVDKKVEPKSCDKTHTCPPCPAPELLGGPDVFLFPPKPKDTLMISRTPEVTCVVVDVSHEDPEVKFNWYVDGVEVHNAKTKPREEQYNSTYRVVSVLTVLHQDWLNGKEYKCKVSNKALPLPEEKTISKAKGQPREPQVYTLPPSRDELTKNQVSLTCLVKGFYPSDIAVEWESNGQPENNYKTTPPVLDSDGSFFLYSKLTVDKSRWQQGNVFSCSVMHEALHNHYTQESLSLSP
light: DIVMTQSPLSLPVTPGEPASISCQASESLVHSNRNTYLHWYLQKPGQSPQLLIYKVSNRFSGVPDRFSGSGSGTDFTLKISRVEAEDVGVYYCSQNTHVPPTFGQGTKVEIERTVAAPSVFIFPPSDEQLKSGTASVVCLLNNFYPREAKVQWKVDNALQSGNSQESVTEQDSKDSTYSLSSTLTLSKADYEKHKVYACEVTHQGLSSPVTKSFNRGEC
notes: Heterodimerized anti-glypican-3 IgG1 variant
In test [1], B1 displayed a Kd of 54 nM. In test [2], the dissociation constant Kd was 54 nM. In test [3], the “KD ratio 1 (KD of GpH7-G1d/GpL16-k0 divided by KD of the antibody)” value is 23 fold and the “KD ratio 2 (KD of GpH7-A5/GpH7-B3/GpL16-k0 divided by KD of the antibody)” value was 30 fold. The “KD ratio (KD of GpH7-A5/GpH7-B78/GpL16-k0 divided by KD of the antibody)” value in test [4] was determined as 1 fold.

B2: GpH7-A57/GpH7-B78/GpL16-k0 (antibody, human IgG1, kappa)
heavy 1: QVQLVQSGAEVKKPGASVTVSCKASGYTFTDYEMHWIRQPPGEGLEWIGAIDPKTGDTAYSESFQDRVTLTADKSTSTAYMELSSLTSEDTAVYYCTRFYSYTYWGQGTLVTVSSASTKGPSVFPLAPSSKSTSGGTAALGCLVKDYFPEPVTVSWNSGALTSGVHTFPAVLQSSGLYSLSSVVTVPSSSLGTQTYICNVNHKPSNTKVDKKVEPKSCDKTHTCPPCPAPELLGGPDVFLFPPKPKDTLMISRTPEVTCVVVDVSHEDPEVKFNWYVDGVEVHNAKTKPREEQYNSTYRVVSVLTVLHQDWLNGKEYKCKVSNKALPLPEEKTISKAKGQPREPQVYTLPPSRKELTKNQVSLTCLVKGFYPSDIAVEWESNGQPENNYKTTPPVLDSDGSFFLYSKLTVDKSRWQQGNVFSCSVMHEALHNRYTQKSLSLSP
heavy 2: QVQLVQSGAEVKKPGASVTVSCKASGYTFTDYEMHWIRQPPGEGLEWIGAIDPKTGDTAYSESFQDRVTLTADKSTSTAYMELSSLTSEDTAVYYCTRFYSYTYWGQGTLVTVSSASTKGPSVFPLAPSSKSTSGGTAALGCLVKDYFPEPVTVSWNSGALTSGVHTFPAVLQSSGLYSLSSVVTVPSSSLGTQTYICNVNHKPSNTKVDKKVEPKSCDKTHTCPPCPAPELLGGPDVFLFPPKPKDTLMISRTPEVTCVVVDVSHEDPEVKFNWYVDGVEVHNAKTKPREEQYNSTYRVVSVLTVLHQDWLNGKEYKCKVSNKALPLPEEKTISKAKGQPREPQVYTLPPSRDELTKNQVSLTCLVKGFYPSDIAVEWESNGQPENNYKTTPPVLDSDGSFFLYSKLTVDKSRWQQGNVFSCSVMHEALHNHYTQESLSLSP
light: DIVMTQSPLSLPVTPGEPASISCQASESLVHSNRNTYLHWYLQKPGQSPQLLIYKVSNRFSGVPDRFSGSGSGTDFTLKISRVEAEDVGVYYCSQNTHVPPTFGQGTKVEIERTVAAPSVFIFPPSDEQLKSGTASVVCLLNNFYPREAKVQWKVDNALQSGNSQESVTEQDSKDSTYSLSSTLTLSKADYEKHKVYACEVTHQGLSSPVTKSFNRGEC
notes: the chains differ only in D356K/H435R against K439E
For the molecule B2, the dissociation constant (Kd) in test [1] was 6.2 nM. Besides, in test [2], the dissociation constant Kd came out at 6.2 nM. Further, in test [3], the “KD ratio 1 (KD of GpH7-G1d/GpL16-k0 divided by KD of the antibody)” value stood at 199 fold and the “KD ratio 2 (KD of GpH7-A5/GpH7-B3/GpL16-k0 divided by KD of the antibody)” value was determined as 263 fold. In addition, the “KD ratio (KD of GpH7-A5/GpH7-B78/GpL16-k0 divided by KD of the antibody)” value in test [4] came to 8.7 fold.

B3: GpH7-TA7/GpH7-TA58/GpL16-k0 (antibody, human IgG1, kappa)
heavy 1: QVQLVQSGAEVKKPGASVTVSCKASGYTFTDYEMHWIRQPPGEGLEWIGAIDPKTGDTAYSESFQDRVTLTADKSTSTAYMELSSLTSEDTAVYYCTRFYSYTYWGQGTLVTVSSASTKGPSVFPLAPSSKSTSGGTAALGCLVKDYFPEPVTVSWNSGALTSGVHTFPAVLQSSGLYSLSSVVTVPSSSLGTQTYICNVNHKPSNTKVDKKVEPKSCDKTHTCPPCPAPEYLWGPSVFLFPPKPKDTLMISRTPEVTCVVVDVSHEDPEVKFNWYVDGVEVHNAKTKPREEQYNATYRVVSVLTVLHQDWLNGKEYKCKVSNKALPAPIEKTISKAKGQPREPQVYTLPPSRKELTKNQVSLTCLVKGFYPSDIAVEWESNGQPENNYKTTPPVLDSDGSFFLYSKLTVDKSRWQQGNVFSCSVMHEALHNRYTQKSLSLSP
heavy 2: QVQLVQSGAEVKKPGASVTVSCKASGYTFTDYEMHWIRQPPGEGLEWIGAIDPKTGDTAYSESFQDRVTLTADKSTSTAYMELSSLTSEDTAVYYCTRFYSYTYWGQGTLVTVSSASTKGPSVFPLAPSSKSTSGGTAALGCLVKDYFPEPVTVSWNSGALTSGVHTFPAVLQSSGLYSLSSVVTVPSSSLGTQTYICNVNHKPSNTKVDKKVEPKSCDKTHTCPPCPAPELLGGPDVFLFPPKPKDTLMISRTPEVTCVVVDVSHEDPEVKFNWYVDGVEVHNAKTKPREEQWNSTYRVVSVLTVLHQDWLNGKEYKCKVSNKALPLPEEKTISKAKGQPREPQVYTLPPSRDELTKNQVSLTCLVKGFYPSDIAVEWESNGQPENNYKTTPPVLDSDGSFFLYSKLTVDKSRWQQGNVFSCSVMHEALHNHYTQESLSLSP
light: DIVMTQSPLSLPVTPGEPASISCQASESLVHSNRNTYLHWYLQKPGQSPQLLIYKVSNRFSGVPDRFSGSGSGTDFTLKISRVEAEDVGVYYCSQNTHVPPTFGQGTKVEIERTVAAPSVFIFPPSDEQLKSGTASVVCLLNNFYPREAKVQWKVDNALQSGNSQESVTEQDSKDSTYSLSSTLTLSKADYEKHKVYACEVTHQGLSSPVTKSFNRGEC
notes: as for B1
Regarding B3, the Kd in test [5] was determined as 3.3 nM. Moreover, the “KD ratio (KD of GpH7-TA7/GpH7-B78/GpL16-k0 divided by KD of the antibody)” value in test [6] came to 1.2 fold.

B4: GpH7-A53/GpH7-B78/GpL16-k0 (antibody, human IgG1, kappa)
heavy 1: QVQLVQSGAEVKKPGASVTVSCKASGYTFTDYEMHWIRQPPGEGLEWIGAIDPKTGDTAYSESFQDRVTLTADKSTSTAYMELSSLTSEDTAVYYCTRFYSYTYWGQGTLVTVSSASTKGPSVFPLAPSSKSTSGGTAALGCLVKDYFPEPVTVSWNSGALTSGVHTFPAVLQSSGLYSLSSVVTVPSSSLGTQTYICNVNHKPSNTKVDKKVEPKSCDKTHTCPPCPAPELLGGPDVFLFPPKPKDTLMISRTPEVTCVVVDVSHEDPEVKFNWYVDGVEVHNAKTKPREEQYNSTYRVVSVLTVLHQDWLNGKEYKCKVSNKALPAPIEKTISKAKGQPREPQVYTLPPSRKELTKNQVSLTCLVKGFYPSDIAVEWESNGQPENNYKTTPPVLDSDGSFFLYSKLTVDKSRWQQGNVFSCSVMHEALHNRYTQKSLSLSP
heavy 2: QVQLVQSGAEVKKPGASVTVSCKASGYTFTDYEMHWIRQPPGEGLEWIGAIDPKTGDTAYSESFQDRVTLTADKSTSTAYMELSSLTSEDTAVYYCTRFYSYTYWGQGTLVTVSSASTKGPSVFPLAPSSKSTSGGTAALGCLVKDYFPEPVTVSWNSGALTSGVHTFPAVLQSSGLYSLSSVVTVPSSSLGTQTYICNVNHKPSNTKVDKKVEPKSCDKTHTCPPCPAPELLGGPDVFLFPPKPKDTLMISRTPEVTCVVVDVSHEDPEVKFNWYVDGVEVHNAKTKPREEQYNSTYRVVSVLTVLHQDWLNGKEYKCKVSNKALPLPEEKTISKAKGQPREPQVYTLPPSRDELTKNQVSLTCLVKGFYPSDIAVEWESNGQPENNYKTTPPVLDSDGSFFLYSKLTVDKSRWQQGNVFSCSVMHEALHNHYTQESLSLSP
light: DIVMTQSPLSLPVTPGEPASISCQASESLVHSNRNTYLHWYLQKPGQSPQLLIYKVSNRFSGVPDRFSGSGSGTDFTLKISRVEAEDVGVYYCSQNTHVPPTFGQGTKVEIERTVAAPSVFIFPPSDEQLKSGTASVVCLLNNFYPREAKVQWKVDNALQSGNSQESVTEQDSKDSTYSLSSTLTLSKADYEKHKVYACEVTHQGLSSPVTKSFNRGEC
notes: as for B1
For B4, the dissociation constant Kd in test [2] was 11 nM. Further, the “KD ratio (KD of GpH7-A5/GpH7-B78/GpL16-k0 divided by KD of the antibody)” value in test [4] was 4.9 fold.

The record behind these values is patent publication US20180155451A1 (published 2018).
